# Experimental data published in doi:10.1101/2025.01.02.631089, “The atypical filament assembly underpins the inflammasome-independent functions of IFI16” (bioRxiv, 2025).
# Target: the molecule itself
# Assay: cryo-EM structure; auto-assembled filaments of recombinant IFI16 PYD, 73 uM, in 40 mM HEPES pH 7.4, 160 mM NaCl, 1 mM EDTA, 1 mM DTT; helical reconstruction
protein,measurement,value
"IFI16^PYD (pyrin domain of human Interferon Inducible Protein 16, residues 1-94) (domain or fragment, UniProt Q16666 1-94, looked up, Interferon inducible protein 16 (IFI16), human, pyrin domain, residues 1-94; Assembles into a helical filament (three-start helix, 134.6 degrees rotation, 5.6 Å rise, no rotational symmetry); The number of copies in a filament is not defined; Cloned in pET21b; also called IFI16^PYD filament; source: E. coli BL21(DE3), purified (Ni-NTA, Superdex 75 SEC)) MGKKYKNIVLLKGLEVINDYHFRMVKSLLSNDLKLNLKMREEYDKIQIADLMEEKFRGDAGLGKLIKIFEDIPTLEDLAETLKKEKLKVKGPAL",binding result,binds
